# Numbering of substitutions follows the chain as printed. In names and notes the source's numbering stands.
# B1: B. lentis subtilisin: subtilisin protease from Bacillus lentus (GG36), SEQ ID NO: 6 (protein)
# chain: AQSVPWGISRVQAPAAHNRGLTGSGVKVAVLDTGISTHPDLNIRGGASFVPGEPSTQDGNGHGTHVAGTIAALNNSIGVLGVAPSAELYAVKVLGASGSGSVSSIAQGLEWAGNNGMHVANLSLGSPSPSATLEQAVNSATSRGVLVVAASGNSGAGSISYPARYANAMAVGATDQNNNRASFSQYGAGLDIVAPGVNVQSTYPGSTYASLNGTSMATPHVAGAAALVKQKNPSWSNVQIRNHLKNTATSLGSTNLYGSGLVNAEAATR
# B2: Bacillus amyloliquefaciens subtilisin: Bacillus amyloliquefaciens subtilisin (BPN′), SEQ ID NO: 3 (protein)
# chain: AQSVPYGVSQIKAPALHSQGYTGSNVKVAVIDSGIDSSHPDLKVAGGASMVPSETNPFQDNNSHGTHVAGTVAALNNSIGVLGVAPSASLYAVKVLGADGSGQYSWIINGIEWAIANNMDVINMSLGGPSGSAALKAAVDKAVASGVVVVAAAGNEGTSGSSSTVGYPGKYPSVIAVGAVDSSNQRASFSSVGPELDVMAPGVSIQSTLPGNKYGAYNGTSMASPHVAGAAALILSKHPNWTNTQVRSSLENTTTKLGDSFYYGKGLINVQAAAQ
# B3: FNA: BPN′ with a Y217L substitution; precursor of the variant (protein, UniProt P00782 108-382, looked up, variant Y217L)
# Subtilisin BPN': B2 chain with Y217L
# B4: proteinase K: Proteinase K from Tritirachium Album limber (protein, UniProt P06873 106-384, looked up)
# Proteinase K: AAQTNAPWGLARISSTSPGTSTYYYDESAGQGSCVYVIDTGIEASHPEFEGRAQMVKTYYYSSRDGNGHGTHCAGTVGSRTYGVAKKTQLFGVKVLDDNGSGQYSTIIAGMDFVASDKNNRNCPKGVVASLSLGGGYSSSVNSAAARLQSSGVMVAVAAGNNNADARNYSPASEPSVCTVGASDRYDRRSSFSNYGSVLDIFGPGTSILSTWIGGSTRSISGTSMATPHVAGLAAYLMTLGKTTAASACRYIADTANKGDLSNIPFGTVNLLAYNNYQA
# How the values were obtained:
# [1] = system: Hartley guinea pigs; test: Guinea pig model of immunogenicity, antigen-specific IgG titers by direct ELISA; format: in vivo
# Procedure: Guinea pig immunizations: Adult female Hartley guinea pigs were immunized with various doses of B. amyloliquefaciens subtilisin and GP002. The doses were 1, 5, 10, and 20 μg/dose. There were four animals for each dose. Animals were immunized subcutaneously with enzyme in Complete Freund's Adjuvant for the first immunization. All subsequent immunizations were performed in Incomplete Freund's adjuvant. Animals were immunized, and a serum sample taken, every two weeks.
# ELISA: A direct ELISA was performed. Costart EIA plates were coated with 10 μg/ml of the immunizing enzyme in PBS overnight at 4° C. Plates were washed and blocked with 1% BSA in PBS. Serum samples were diluted in 1% BSA/PBS, and incubated on the enzymes coated plates for 1 hour. Serum samples were washed out, and biotinylated anti-guinea pig IgG was added at a 1:10,000 dilution in 1% BSA/PBS. The secondary reagent was incubated for 1 hour. The wells were washed, and avidin conjugated horse radish peroxidase was added to the wells at a 1:1000 dilution in 1% BSA/PBS. After 30 minutes, the substrate (ABTS) was added and the OD405 was read after 30 minutes.
# Calculation of titers: Background was subtracted from the OD readings, and the results plotted for each individual guinea pig. […] The titer value was calculated from the linear regression equation for an OD=0.5. […]
# [2] = system: guinea pig splenocytes; test: T cell epitope mapping with splenocytes of immunized guinea pigs (thymidine incorporation); format: cell-based; details: guinea pigs immunized with 20 μg subtilisin; 15-mer peptides at 5 μM; >10 animals
# Procedure: B. lentis and B. amyloliquefaciens subtilisin T cell epitope mapping: Guinea pigs were immunized with 20 μg/immunization of subtilisin from either B. lentis or B. amyloliquefaciens. Animals were immunized subcutaneously in adjuvant every two weeks for 10 to 12 weeks. A single cell suspension of guinea pig splenocytes was created from each animal's spleen. Cells were plated at 5×10^5 splenocytes per well in round bottom 96 well plates. 15-mer peptides off-set by 3 amino acids were synthesized by Mimotopes. Peptides were resuspended to 1 mM in DMSO. Peptides were added to the cells at a final concentration of 5 μM. Cultures were incubated for 5 days at 37°, 5% CO2. Wells were pulsed with 0.5 μCi tritiated thymidine, and allowed to incubate for an additional 18 hours. Wells were harvested, and thymidine incorporation assessed.
# [3] = system: HLA DR3/DQ2 transgenic mice; test: Immunization of HLA-DR3/DQ2/C2D transgenic mice, antigen-specific IgG by direct ELISA; format: in vivo; details: 2 x 50 μg i.p.
# Procedure: Adult male HLA-DR31DQ2/C2D mice were immunized with 50 μg of FNA or FNA Variant emulsified in Complete Freund's Adjuvant. The immunization was administered intraperitoneally. Two weeks later, the mice received another intraperitoneal immunization of 50 μg FNA or the Variant emulsified in Incomplete Freund's Adjuvant. One week later, the mice were bled via the retro-orbital route, and the serum collected. Serum was assessed for antigen-specific IgG antibodies in a direct ELISA protocol. Briefly, 96 well flat-bottomed EIA plates were coated overnight with 10 μg/ml of denatured FNA. Plates were washed, blocked with 1% Fetal Calf Serum, and serum was titered out at 1:10 dilutions. The serum was washed out of the wells, and antigen-specific IgG was detected with horse radish peroxidase conjugated anti-mouse IgG. Results are presented as serum dilution versus average optical density (×1000) in Table 1 and FIG. 21.
# [4] = system: naïve human CD4+ T-cells; test: T-cell proliferation assay with differentiated dendritic cells and naïve human CD4+ T-cells (tritium incorporation); format: cell-based; details: using the methods herein
# Procedure: Fresh human peripheral blood cells were collected from “naïve” humans, i.e., persons not known to be exposed to or sensitized to Bacillus lentus protease, for determination of antigenic epitopes in protease from Bacillus lentus and human subtilisin. Naïve humans is intended to mean that the individual is not known to have been exposed to or developed a reaction to protease in the past. Peripheral mononuclear blood cells (stored at room temperature, no older than 24 hours) were prepared for use as follows: Approximately 30 mls of a solution of buffy coat preparation from one unit of whole blood was brought to 50 ml with Dulbecco's phosphate buffered solution (DPBS) and split into two tubes. […] The cell density of the resultant solution was measured by hemocytometer. Viability was measured by trypan blue exclusion.
# From the resulting solution, a differentiated dendritic cell culture was prepared from the peripheral blood mononuclear cell sample having a density of 10^8 cells per 75 ml culture flask in a solution as follows: • (1) 50 ml of serum free AIM V media (Gibco) was supplemented with a 1:100 dilution beta-mercaptoethanol (Gibco). […] Adherent and non-adherent cells were then centrifuged at 600 G for 5 minutes, washed in DPBS and counted. • (4) The prepared dendritic cells were placed into a 96 well round bottom array at 2×10^4/well in 100 microliter total volume of AIM V media. […]
molecule,measurement,setting,value
B1,immunogenicity in Hartley strain guinea pigs,[1],highly immunogenic
same,T cell epitopes found,[2],Two
B2,immunogenicity in Hartley strain guinea pigs,[1],comparatively non-immunogenic
same,T cell epitopes found,[2],none
B3,"average optical density (×1000), antigen-specific IgG",[3]; serum dilution 10,2937.5
same,"average optical density (×1000), antigen-specific IgG",[3]; serum dilution 100,2476
same,"average optical density (×1000), antigen-specific IgG",[3]; serum dilution 1000,1695
same,"average optical density (×1000), antigen-specific IgG",[3]; serum dilution 10000,641.5
same,"average optical density (×1000), antigen-specific IgG",[3]; serum dilution 100000,207
same,"average optical density (×1000), antigen-specific IgG",[3]; serum dilution 1000000,129.5
same,"average optical density (×1000), antigen-specific IgG",[3]; serum dilution 10000000,88.5
B4,immunogenic response compared with other commercially available proteases,[4],lower immunogenic response

# — patent publication US6897049B1, “Proteins producing an altered immunogenic response and methods of making and using the same” (Genencor International, Inc., priority 1998, dated 2005)
